How the values were obtained:
[1] = target: T1, RBD #6L LwaCas13a (ADAR1 126-202 in Loop 1) (Leptotrichia wadei / Homo sapiens); assay: cleavage_in_vitro; collateral cleavage of RNaseAlert
T1 chain: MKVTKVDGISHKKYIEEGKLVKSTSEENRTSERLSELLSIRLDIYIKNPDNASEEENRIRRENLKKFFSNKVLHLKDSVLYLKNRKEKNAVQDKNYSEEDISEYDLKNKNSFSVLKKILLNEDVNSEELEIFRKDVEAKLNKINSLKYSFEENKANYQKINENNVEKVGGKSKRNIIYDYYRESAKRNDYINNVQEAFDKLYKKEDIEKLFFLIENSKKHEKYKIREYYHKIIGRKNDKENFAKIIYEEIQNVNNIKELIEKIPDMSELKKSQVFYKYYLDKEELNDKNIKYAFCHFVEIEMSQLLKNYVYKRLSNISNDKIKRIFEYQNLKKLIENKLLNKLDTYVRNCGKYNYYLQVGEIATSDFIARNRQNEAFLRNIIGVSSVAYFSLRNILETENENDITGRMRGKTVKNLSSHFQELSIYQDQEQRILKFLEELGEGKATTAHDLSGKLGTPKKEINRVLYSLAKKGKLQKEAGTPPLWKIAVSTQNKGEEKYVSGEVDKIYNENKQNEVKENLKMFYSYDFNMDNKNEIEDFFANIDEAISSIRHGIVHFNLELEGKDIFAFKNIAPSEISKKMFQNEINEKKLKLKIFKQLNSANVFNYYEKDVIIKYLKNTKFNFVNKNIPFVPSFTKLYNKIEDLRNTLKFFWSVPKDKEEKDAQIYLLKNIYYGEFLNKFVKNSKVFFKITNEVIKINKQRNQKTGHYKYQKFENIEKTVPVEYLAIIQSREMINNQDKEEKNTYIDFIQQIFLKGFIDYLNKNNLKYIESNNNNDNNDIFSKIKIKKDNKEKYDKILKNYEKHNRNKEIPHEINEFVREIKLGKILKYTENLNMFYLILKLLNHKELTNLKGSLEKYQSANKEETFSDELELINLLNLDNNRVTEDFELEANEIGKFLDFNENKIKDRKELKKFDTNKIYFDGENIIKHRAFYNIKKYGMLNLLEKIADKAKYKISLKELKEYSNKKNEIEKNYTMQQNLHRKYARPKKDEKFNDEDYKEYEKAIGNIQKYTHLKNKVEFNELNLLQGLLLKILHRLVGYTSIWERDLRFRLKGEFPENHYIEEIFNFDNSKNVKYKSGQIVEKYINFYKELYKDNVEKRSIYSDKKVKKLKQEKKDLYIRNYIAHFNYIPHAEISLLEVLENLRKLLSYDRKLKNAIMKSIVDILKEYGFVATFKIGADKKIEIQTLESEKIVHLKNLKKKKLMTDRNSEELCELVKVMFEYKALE

RBD #4L LwaCas13a [2] = target: T2, RBD #4L LwaCas13a (Leptotrichia wadei / Homo sapiens); assay: as above
[3] = target: T3, RBD #2L LwaCas13a (hnRNP A1 1-104 in Loop 1) (Leptotrichia wadei / Homo sapiens); assay: as above
RBD #3L LwaCas13a [4] = target: T4, RBD #3L LwaCas13a (Leptotrichia wadei / Homo sapiens); assay: as above
dWT LwaCas13a [5] = target: T5, dWT LwaCas13a (Leptotrichia wadei, R1046A/H1051A); assay: EMSA; crRNA complex; 5 mM MgCl2, 37 C; conditions: label: body 32P for EMSA
T5 chain: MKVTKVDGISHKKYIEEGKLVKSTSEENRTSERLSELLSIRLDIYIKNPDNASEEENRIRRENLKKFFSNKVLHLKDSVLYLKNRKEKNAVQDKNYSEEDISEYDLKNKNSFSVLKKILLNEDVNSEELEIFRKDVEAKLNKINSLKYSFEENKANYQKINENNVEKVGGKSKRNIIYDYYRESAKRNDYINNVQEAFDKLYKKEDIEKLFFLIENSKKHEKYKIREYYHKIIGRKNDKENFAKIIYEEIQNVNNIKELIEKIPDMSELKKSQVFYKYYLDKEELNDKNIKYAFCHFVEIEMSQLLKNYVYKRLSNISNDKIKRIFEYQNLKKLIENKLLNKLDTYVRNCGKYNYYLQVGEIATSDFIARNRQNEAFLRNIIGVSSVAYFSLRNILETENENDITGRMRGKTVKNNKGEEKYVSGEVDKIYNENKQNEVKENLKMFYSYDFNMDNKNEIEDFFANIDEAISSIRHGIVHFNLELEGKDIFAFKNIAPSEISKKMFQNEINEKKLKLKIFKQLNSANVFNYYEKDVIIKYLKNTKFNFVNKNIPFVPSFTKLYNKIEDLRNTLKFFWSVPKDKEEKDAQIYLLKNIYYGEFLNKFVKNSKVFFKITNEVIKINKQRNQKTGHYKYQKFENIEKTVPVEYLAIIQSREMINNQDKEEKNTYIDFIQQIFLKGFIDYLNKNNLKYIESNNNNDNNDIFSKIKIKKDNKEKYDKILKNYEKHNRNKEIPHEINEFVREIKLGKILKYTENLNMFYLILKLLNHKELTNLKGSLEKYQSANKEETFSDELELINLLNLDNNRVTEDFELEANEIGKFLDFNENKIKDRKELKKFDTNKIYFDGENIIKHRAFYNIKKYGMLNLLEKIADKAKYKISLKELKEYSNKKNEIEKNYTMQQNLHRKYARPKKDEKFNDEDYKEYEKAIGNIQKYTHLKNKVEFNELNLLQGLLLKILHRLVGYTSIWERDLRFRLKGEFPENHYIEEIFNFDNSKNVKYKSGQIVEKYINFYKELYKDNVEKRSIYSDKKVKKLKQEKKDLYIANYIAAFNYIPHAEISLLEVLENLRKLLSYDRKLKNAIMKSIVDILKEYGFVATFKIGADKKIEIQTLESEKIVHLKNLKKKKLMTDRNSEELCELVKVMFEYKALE

[6] = target: T1, RBD #6L LwaCas13a (ADAR1 126-202 in …); assay: cleavage_in_vitro; collateral cleavage of RNaseAlert, 30 min; conditions: label: body 32P for EMSA
RBD #4L LwaCas13a [7] = target: T2, RBD #4L LwaCas13a; assay: as above; conditions: label: body 32P for EMSA
[8] = target: T6, RBD #1L LwaCas13a (ADAR1 708-801 in Loop 1) (Leptotrichia wadei / Homo sapiens); assay: as above; conditions: label: body 32P for EMSA
T6 chain: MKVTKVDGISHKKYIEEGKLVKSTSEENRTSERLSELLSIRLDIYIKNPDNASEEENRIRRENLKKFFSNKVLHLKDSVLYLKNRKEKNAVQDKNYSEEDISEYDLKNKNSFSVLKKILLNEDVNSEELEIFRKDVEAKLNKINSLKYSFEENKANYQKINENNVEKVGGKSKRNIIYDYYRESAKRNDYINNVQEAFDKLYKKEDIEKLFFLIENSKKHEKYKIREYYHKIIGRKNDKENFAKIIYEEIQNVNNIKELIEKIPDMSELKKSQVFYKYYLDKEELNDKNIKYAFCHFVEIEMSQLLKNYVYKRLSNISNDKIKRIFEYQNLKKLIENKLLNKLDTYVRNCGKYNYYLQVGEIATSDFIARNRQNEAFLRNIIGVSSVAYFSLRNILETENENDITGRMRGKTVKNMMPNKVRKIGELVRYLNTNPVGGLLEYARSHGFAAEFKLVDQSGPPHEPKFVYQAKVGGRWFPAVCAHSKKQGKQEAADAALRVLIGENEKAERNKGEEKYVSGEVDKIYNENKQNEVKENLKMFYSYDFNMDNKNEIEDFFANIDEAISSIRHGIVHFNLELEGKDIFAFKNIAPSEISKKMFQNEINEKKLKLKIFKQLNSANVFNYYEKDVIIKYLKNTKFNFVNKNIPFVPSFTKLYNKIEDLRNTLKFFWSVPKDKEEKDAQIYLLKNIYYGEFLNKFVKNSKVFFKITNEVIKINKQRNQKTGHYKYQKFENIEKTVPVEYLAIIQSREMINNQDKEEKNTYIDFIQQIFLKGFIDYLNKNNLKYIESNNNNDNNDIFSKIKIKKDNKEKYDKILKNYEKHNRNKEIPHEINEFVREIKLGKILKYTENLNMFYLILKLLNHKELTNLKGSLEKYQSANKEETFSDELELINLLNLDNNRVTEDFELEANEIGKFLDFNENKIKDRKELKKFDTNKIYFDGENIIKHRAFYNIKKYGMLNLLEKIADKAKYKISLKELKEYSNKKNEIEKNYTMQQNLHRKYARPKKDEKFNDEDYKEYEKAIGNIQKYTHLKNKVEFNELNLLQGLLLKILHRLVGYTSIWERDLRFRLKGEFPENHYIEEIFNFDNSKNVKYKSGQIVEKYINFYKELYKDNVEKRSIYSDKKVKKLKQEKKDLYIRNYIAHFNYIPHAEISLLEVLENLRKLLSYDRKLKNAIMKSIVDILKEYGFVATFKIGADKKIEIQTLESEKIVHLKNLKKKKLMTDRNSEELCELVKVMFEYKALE

[9] = target: T3, RBD #2L LwaCas13a (hnRNP A1 1-104 in …); assay: as above; conditions: label: body 32P for EMSA
RBD #3L LwaCas13a [10] = target: T4, RBD #3L LwaCas13a; assay: as above; conditions: label: body 32P for EMSA
dWT LwaCas13a [11] = target: T5, dWT LwaCas13a; assay: EMSA; crRNA complex; 50 mM Tris pH 8.0, 60 mM NaCl, 5 mM MgCl2, 37 C; conditions: label: body 32P

B1: cr3_ssRNA1_0 crRNA ; T3_ssRNA1 target (ssRNA ; ssRNA)
RNA 1: GACUACCCCAAAAACGAAGGGGACUAAAACUAGAUUGCUGUUCUACCAAGUAAUCCAU
RNA 2: GGCCAGUGAAUUCGAGCUCGGUACCCGGGGAUCCUCUAGAAAUAUGGAUUACUUGGUAGAACAGCAAUCUACUCGACCUGCAGGCAUGCAAGCUUGGCGUAAUCAUGGUCAUAGCUGUUUCCUGUGUUUAUCCGCUCACAAUUCCACACAACAUACGAGCCGGAAGCAUAAAG
[1]
  binding signal: 38 % higher than WT
RBD #4L LwaCas13a [2]
  binding signal: 91 % higher than WT
[3]
  binding signal: 59 % higher than WT
RBD #3L LwaCas13a [4]
  binding signal: 102 % higher than WT

B2: cr1_N crRNA ; T1_N target (105 nt) (ssRNA ; ssRNA)
RNA 1: GACUACCCCAAAAACGAAGGGGACUAAAACAAUCUGAGGGUCCACCAAACGUAAUGCG
RNA 2: GUCUGAUAAUGGACCCCAAAAUCAGCGAAAUGCACCCCGCAUUACGUUUGGUGGACCCUCAGAUUCAACUGGCAGUAACCAGAAUGGAGAACGCAGUGGGGCGCG
dWT LwaCas13a [5]
  Kd: 16 nM
[6]
  binding signal: 174 % higher than WT
RBD #4L LwaCas13a [7]
  binding signal: 518 % higher than WT
[8]
  binding signal: 59 % higher than WT
[9]
  binding signal: 216 % higher than WT
RBD #3L LwaCas13a [10]
  binding signal: 468 % higher than WT

B3: cr1_N crRNA ; T26_N_2 target (36 nt) (ssRNA ; ssRNA)
RNA 1: GACUACCCCAAAAACGAAGGGGACUAAAACAAUCUGAGGGUCCACCAAACGUAAUGCG
RNA 2: ACCCCGCAUUACGUUUGGUGGACCCUCAGAUUCAAC
dWT LwaCas13a [11]
  Kd: 46 nM

Source: patent publication US20250019680, “ENGINEERED CAS13 FOR ULTRASENSITIVE NUCLEIC ACID DETECTION” (William Marsh Rice University, published 2025)
